Experimental data published in PMC11333492 (Nature Communications, 2024).

Biological target: T1, FluPolB (influenza B/Memphis/13/2003 polymerase heterotrimer) (influenza B/Memphis/13/2003, UniProt Q5V8Z9;Q5V8Y6;Q5V8X3)
T1 construct: copies: + +
Test: SEC
Conditions: both partners purified

B1: hANP32A LCAR alone (144-249) (domain or fragment)
chain: YLDGYDRDDKEAPDSDAEGYVEGLDDEEEDEDEEEYDEDAQVVEDEEDEDEEEEGEEEDVSGEEEEDEEGYNDGEVDDEEDEEELGEEERGQKRKREPEDEGEDDD
B1: binds.
